What all share (test): cell-based or functional assay
The target of experiment [1] is human insulin receptor isoform A (human, UniProt P06213-2 28-1370).
A further experiment has as its target Pig IR (pig, UniProt F1SCL0 28-1382).
The next experiment deals with Rat IR (rat, UniProt P15127 27-1383).
The target in experiment [2] is human insulin receptor isoform B (human, UniProt P06213 28-1382).

Chain of Rat IR (P15127 27-1383): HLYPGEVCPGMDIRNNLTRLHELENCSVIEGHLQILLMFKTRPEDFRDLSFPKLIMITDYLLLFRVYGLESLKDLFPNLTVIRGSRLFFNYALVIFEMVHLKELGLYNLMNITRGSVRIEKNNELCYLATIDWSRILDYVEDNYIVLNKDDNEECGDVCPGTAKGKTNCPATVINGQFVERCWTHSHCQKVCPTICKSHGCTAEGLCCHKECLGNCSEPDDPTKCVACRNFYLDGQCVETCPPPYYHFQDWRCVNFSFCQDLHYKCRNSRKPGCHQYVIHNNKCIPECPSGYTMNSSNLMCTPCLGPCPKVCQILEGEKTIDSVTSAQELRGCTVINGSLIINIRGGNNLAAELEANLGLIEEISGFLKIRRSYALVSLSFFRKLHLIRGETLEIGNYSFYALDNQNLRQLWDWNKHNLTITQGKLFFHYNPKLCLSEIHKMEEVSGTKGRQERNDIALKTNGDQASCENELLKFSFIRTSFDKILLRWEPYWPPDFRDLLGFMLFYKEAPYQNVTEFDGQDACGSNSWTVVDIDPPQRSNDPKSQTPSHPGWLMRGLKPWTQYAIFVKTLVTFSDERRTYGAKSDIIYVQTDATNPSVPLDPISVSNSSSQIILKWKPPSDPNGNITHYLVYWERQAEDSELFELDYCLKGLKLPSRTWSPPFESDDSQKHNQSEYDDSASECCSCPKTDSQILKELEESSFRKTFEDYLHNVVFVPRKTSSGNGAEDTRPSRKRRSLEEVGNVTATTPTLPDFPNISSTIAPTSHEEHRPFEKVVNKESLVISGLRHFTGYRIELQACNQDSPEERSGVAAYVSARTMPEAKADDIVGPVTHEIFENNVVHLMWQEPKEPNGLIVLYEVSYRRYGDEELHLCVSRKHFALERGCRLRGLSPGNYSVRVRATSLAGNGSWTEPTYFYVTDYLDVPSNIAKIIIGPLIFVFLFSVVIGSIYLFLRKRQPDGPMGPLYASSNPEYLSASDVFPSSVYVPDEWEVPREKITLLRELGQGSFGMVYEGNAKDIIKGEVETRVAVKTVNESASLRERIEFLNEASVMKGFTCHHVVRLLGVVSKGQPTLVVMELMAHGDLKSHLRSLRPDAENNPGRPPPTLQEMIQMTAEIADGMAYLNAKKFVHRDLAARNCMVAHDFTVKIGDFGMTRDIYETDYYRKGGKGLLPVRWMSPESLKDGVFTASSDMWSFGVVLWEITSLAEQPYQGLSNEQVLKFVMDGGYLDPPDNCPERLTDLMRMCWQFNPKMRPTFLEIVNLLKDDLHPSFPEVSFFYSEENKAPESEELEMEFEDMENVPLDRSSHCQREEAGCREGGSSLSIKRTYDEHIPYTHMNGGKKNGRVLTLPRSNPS

B1: scl-Fc fusion protein INS022 (Fc fusion)
chain: FVNQHLCGSHLVEALELVCGERGFHYTPKTGSYPGGVGIVEQCCTSICSLSQLENYCGGEAEDLQVGQVELGGGPGAGSLQPEGSLQGGPSVFLFPPKPKDTLMISRTPEVTCVVVDVSHEDPEVKFNWYVDGVEVHNAKTKPREEQYNSTYRVVSVLTVLHQDWLNGKEYKCKVSNKALPAPIEKTISKAKGQPREPQVYTLPPSRDELTKNQVSLTCLVKGFYPSDIAVEWESNGQPENNYKTTPPVLDSDGSFFLYSKLTVDKSRWQQGNVFSCSVMHEALHNHYTQKSLSLSPGGGGGSAESKYGPPCPPCPA
As for B1, the “hIR-A phosphorylation [EC50 nM] mean” value in experiment [1] came out at 215 nM. In addition, in the experiment with Pig IR, the “Pig IR phosphorylation [EC 50 nM] mean” value came out at 15.9 nM. In the experiment with Rat IR, the “Rat IR phosphorylation [EC50 nM] mean” value is 64.9 nM. Also, the “hIR-B-phosphorylation [EC50 nM] mean” value in experiment [2] was found to be 42.2 nM.

B2: scl-Fc fusion protein INS021 (Fc fusion)
chain: SFVNQHLCGSHLVEALELVCGERGFHYTPKTEEYPGDVGIVEQCCTSICSLSQLENYCGGEAEDLQVGQVELGGGPGAGSLQLALEGSLQGGPSVFLFPPKPKDTLMISRTPEVTCVVVDVSHEDPEVKFNWYVDGVEVHNAKTKPREEQYNSTYRVVSVLTVLHQDWLNGKEYKCKVSNKALPAPIEKTISKAKGQPREPQVYTLPPSRDELTKNQVSLTCLVKGFYPSDIAVEWESNGQPENNYKTTPPVLDSDGSFFLYSKLTVDKSRWQQGNVFSCSVMHEALHNHYTQKSLSLSPGGGGGSAESKYGPPCPPCPA
For B2, the “hIR-A phosphorylation [EC50 nM] mean” value in experiment [1] was 447 nM. In addition, in the experiment with Pig IR, the “Pig IR phosphorylation [EC 50 nM] mean” value is 56.7 nM. In addition, in the experiment with Rat IR, the “Rat IR phosphorylation [EC50 nM] mean” value was 620 nM. The “hIR-B-phosphorylation [EC50 nM] mean” value in experiment [2] is 288 nM.

B3: scl-Fc fusion protein INS023 (Fc fusion)
chain: SFVNQHLCGSHLVEALELVCGERGFHYTPKTGSYPGGVGIVEQCCTSICSLSQLENYCGGEAEDLQVGQVELGGGPGAGSLQPEGSLQGGPSVFLFPPKPKDTLMISRTPEVTCVVVDVSHEDPEVKFNWYVDGVEVHNAKTKPREEQYNSTYRVVSVLTVLHQDWLNGKEYKCKVSNKALPAPIEKTISKAKGQPREPQVYTLPPSRDELTKNQVSLTCLVKGFYPSDIAVEWESNGQPENNYKTTPPVLDSDGSFFLYSKLTVDKSRWQQGNVFSCSVMHEALHNHYTQKSLSLSPGGGGGSAESKYGPPCPPCPA
Take B3: the “hIR-A phosphorylation [EC50 nM] mean” value in experiment [1] worked out at 408 nM. In addition, the “Pig IR phosphorylation [EC 50 nM] mean” value with Pig IR worked out at 29.9 nM. The “Rat IR phosphorylation [EC50 nM] mean” value in the experiment with Rat IR was 381 nM. For the same molecule, the “hIR-B-phosphorylation [EC50 nM] mean” value in experiment [2] is 59.8 nM.
